Reference: patent US20250230251A1

What was measured:
[1] = target: extracellular matrix (ECM) proteins; experiment: ECM (Matrigel) ELISA, 0.1 µM antibody
[2] = target: extracellular matrix (ECM) proteins; experiment: ECM (Matrigel) ELISA, 1 µM antibody

ECM score [1]: 1.2
ECM score [2]: 1.2
B1: P21 (antibody, human IgG1, kappa, V domains shown)
VH: QVQLQQSGPGLVKPSETLSLTCTVSGGSISNYYWTWIRQPPGKGLEWIGYISDSGSTNYNPSLKSRVTISVDTSKNQFSLKLSSVTAADTAVYYCARETIVVRGFYFYVMDVWGQGTTVTVSS
VL: AIQLTQSPSSLSASVGDRVTITCRASQGISSALAWYQQRPGKAPKLLIYDASNWESGVPSRFSGSGSGTDFTLTISSLQPEDFATYYCQQFNSYPWTFGQGTKVEIKR
